Values belong to the molecule of their own block, whether it stands above or below them.
Key:
[1] = analysis of ETP homing (IRD-800 labeled ETP, tail vein); format: in vivo, mouse
Procedure: FIGS. 2A-2D: ETP levels in human cancer specimens and its target tissues. (FIG. 2A and FIG. 2B) Human cancer tissues compared with those of benign tissues were immunostained with human ETP-specific polyclonal antibody. Human samples for breast cancer (FIG. 2A) and colon cancer (FIG. 2B) were analyzed. […] (FIG. 2C and FIG. 2D) Whole body in vivo imaging of injected ETP. IRD-800 fluorescence-labeled ETP protein (10 μg) was intravenously injected into WT, 8-week-old PyMT, and 10-week-old PyMT mice by tail vein. (FIG. 2C) ETP levels were visualized by the Licor Infrared Scanner 10-90 minutes after injection. Arrows indicate mammary tumors. L, liver; B, bladder; T, tumor. IgG was used as a negative control. (FIG. 2D) Tissues were excised 2 hours after injection, and ETP-positive fluorescence signals were determined with a Licor Infrared Scanner. Quantified values were normalized to total area and represented as percentage of WT. ***P<0.001.
The homing of ETP in circulation was determined by injecting fluorescently labeled ETP into tail veins. ETP and IgGs were labeled with IRDye800 CW NHS Ester (Licor Bioscience) at a 1:1 molar ratio (dye/protein), according to the manufacturer's instructions. Whole-body fluorescence images were collected on the Odyssey scanner (Licor Bioscience). […] Quantified values were normalized to the total area of each organ.

[2] = target: T1, ETP (Mus musculus, UniProt E9PWQ3); assay: in vivo Matrigel bioassay (stromal cell recruitment into plugs); settings: recombinant ETP 100 ng/plug vs PBS, mammary fat pads of WT mice
T1 sequence (E9PWQ3 with tags, fused parts or gaps limits assumed): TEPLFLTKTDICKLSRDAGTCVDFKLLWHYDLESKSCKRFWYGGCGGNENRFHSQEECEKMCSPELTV
Procedure: (§1) FIGS. 7A-7I: ETP acts as a chemokine augmenting tumor growth. […] Tumor volume was determined 1 month after implantation (representative images). Data represent mean±SEM (n=5 per group). ***P<0.001, unpaired t test. (FIG. 7B) In vivo Matrigel bioassay. Matrigel (50 μl) was mixed with ETP (100 ng/plug) or PBS and implanted into WT mice in the presence of IgG, 1D11, or 10B6 (20 μg/plug). 2 days after implantation, plugs were excised and stained for FIG. 7H & FIG. 7E. Scale bars: 100 μm. (FIGS. 7C-7H) Cancer cells were plated in the bottom chamber 1 day prior to seeding MS-1 cells (5×10^5 cells/well) and macrophages (1×10^5 cells/well) atop the membrane chamber in Transwell and incubated for 18-24 hours (FIG. 7C). (FIGS. 7D, 7E, 7F, 7G) Representative images of multiple independent experiments. Scale bars: 100 μm. (FIG. 7H) Quantitation (mean±SEM; n=3 per group). ***P<0.001, […], unpaired t test. (FIG. 7I) MS-1 migration assay. MS-1 cells (5×10^5 cells/well) were plated atop the chamber in Transwell and incubated for 24 hours. Chemotaxis was set up by following cell migration from DMEM/serum-free to DMEM/2% FBS/PBS or DMEM/2% FBS/ETP protein (1 μg/well). Images are representative of multiple independent experiments. Data represent mean±SEM (n=3 per group). ***P=0.008, unpaired t test. Scale bars: 100 μm.

[3] = tested on: MS-1 cells; assay: MS-1 migration assay (Transwell); format: cell-based, mouse; settings: ETP protein 1 μg/well, 24 hours
Procedure: as §1, with “Chemotaxis was set up by following cell migration from DMEM/serum-free to DMEM/2% FBS/PBS or DMEM/2% FBS/ETP protein (1 μg/well). Images are representative of multiple independent experiments. Data represent mean±SEM (n=3 per group). ***P=0.008, unpaired t test. Scale bars: 100 μm.” left out
Thioglycollate-elicited macrophages or MS-1 in serum-free media were loaded into the upper chamber of a Transwell plate (8 μm pore size; Costar). […] 18 hours later, cells on the underside of the membrane were fixed with 10% formalin, stained with hematoxylin, and counted. […]

[4] = tested on: Met-1 cells; assay: Mitotic Index Assay with endotrophin; format: cell-based, mouse; settings: Met-1, purified ETP, 24 hours
Procedure: (§2) FIGS. 15A-15D. Endotrophin has a limited effect on tumor cell proliferation. FIG. 15A. […] An equal number of cancer cells were freshly isolated from tumor tissues of PyMT (ctrl-cancer cells) and PyMT/endotrophin (ETP^+-cancer cells) and implanted into WT mice (1×10^6 cells/mouse). Tumor volume was determined 1 month post-implantation. Quantitative results are represented as mean±SEM (n=7/group). p=n.s vs. Ctrl-cancer cells by unpaired t-test. FIG. 15B. Met-1 cells were seeded into the 96 well plates and incubated with DMEM/10% FBS/PBS, DMEM/10% FBS/endotrophin, or conditioned media acquired from HEK293 or HEK293/endotrophin-overexpressing cells for 24 hours. Mitotic activity was measured with a Mitotic Index Assay Kit (Active Motif) following the manufacturer's protocol. Paclitaxel (1 μM) was used as a positive control of mitosis. Quantified results are represented as mean±SEM (n=10/group) p=n.s vs. PBS or Ctrl-media by unpaired t-test. FIG. 15C. Human breast cancer cells, MCF7 (0.1×10^5) were plated in the 24 well plates with or without recombinant endotrophin protein and cell numbers were counted over time. The quantification of results is represented as mean±SEM (n=6/group, triplicate). p=n.s vs. PBS by unpaired t-test. FIG. 15D. […] Endomucin positive area was quantified and represented as mean±SEM (multiple images, n=4/group). ***p=0.0008 vs. ctrl by unpaired t-test. Scale bars: 200 μm.

[5] = tested on: MCF7; assay: cell number counts with recombinant endotrophin protein; format: cell-based, human; settings: MCF-7, purified ETP
Procedure: as §2

[6] = tested on: Met-1 cells; assay: allografts of Met-1 cells with ETP or PBS and 1D11 or IgG in a Matrigel plug; format: in vivo, mouse; settings: ETP 20 ng/plug vs PBS
Procedure: FIGS. 6A-6H: ETP augments metastasis through enforcing TGF-β-dependent EMT. (FIG. 6A) E-cadherin immunostaining for tumor tissues from PyMT and PyMT/ETP. (FIG. 6B and FIG. 6C) SBE-luciferase reporter assay. See Supplemental Methods for details. Data represent fold increase (3 independent experiments). **P<0.01, *P<0.05, 2-way ANOVA. pRA-ctrl, empty; pRA-sETP, secretion form; pRA-ETP, intracellular form. (FIGS. 6D-6G) Allografts of Met-1 cells in the presence of either ETP (20 ng/plug) or PBS mixed with 1D11 or IgG (10 μg/plug) within a Matrigel plug. 10 days after implantation, additional 1D11 or IgG (100 μg) was i.p. injected once a week during tumor progression. (FIG. 6D) Tumor volumes represent means±SEM (n=5 per group). *P<0.05, 2-way ANOVA. (FIG. 6E) H&E staining. The ratio of stromal area in tumor tissues was quantified. Data represent mean±SEM (n=5 per group). *P<0.05, unpaired t test. T; tumor and S; stroma. (FIG. 6F) Fibrosis was determined by Masson's Trichrome C stain. Data represent mean±SEM (n=5 per group). **P<0.01, ***P<0.001, unpaired t test. (FIG. 6G) Western blotting for EMT markers E-cadherin, vimentin, and α-SMA. β-actin, loading control. Data represent fold increase (n=5 per group). *P<0.05, **P<0.01, ***P<0.001, unpaired t test. […] 20 days post injection, metastasized cancer cells in the lung tissues were determined by fluorescence intensity. […]

[7] = target: T2, native form of endotrophin protein (Mus musculus, UniProt E9PWQ3); assay: capture of IRD-800 labeled native endotrophin by monoclonal antibodies (Protein G Sepharose pull-down); format: binding; settings: 2 hours at room temperature, rat-IgG as control
T2 construct: made in house; purified from conditioned media by gel filtration
T2 sequence (E9PWQ3 with tags, fused parts or gaps): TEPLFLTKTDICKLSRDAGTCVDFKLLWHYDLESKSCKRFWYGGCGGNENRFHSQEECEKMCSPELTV
Source text: FIGS. 9A-9C. Generation of endotrophin-specific antibodies. FIG. 9A. HEK-293 cell produced mouse endotrophin was subjected to Western blotting using rabbit anti-mouse endotrophin polyclonal antibody. FIG. 9B. Bacterially produced GST-fused recombinant human endotrophin protein was subjected to western blotting using a rabbit anti-human endotrophin polyclonal antibody. GST protein was used as a negative control. The arrow points at endotrophin. FIG. 9C. […] IRD (infrared dye)-800 labeled native form of endotrophin protein was incubated with either endotrophin monoclonal antibodies, including 4D1, 4F8, 10B6-A11, 10B6-B5, and 10B6-C3 or a rat-IgG for 2 hours at room temperature and subsequently incubated with Protein G Sepharose for 1 hour. The protein-Sepharose complex was separated on a 10-20% Tricine gel after 3 times washing with PBS. Captured endotrophin protein was visualized on a Licor Odyssey Infrared Scanner (Licor Bioscience). Green color represents the IRD800 channel.

B2: 10B6-A11: rat anti-mouse endotrophin monoclonal antibody (antibody, V domains shown)
VH: QVQLQQSGPELAKPGSSVKISCKASGYTFTSYEMHWIKQRPGQGLEWIGYIYPESGSTGYNEKFKGKATLTVDKSSPTAYMQLSSLTPDNSAVYFCTRGLRVLGYVMDVWGHGTSVTVSS
VL: DVQLTQSPSFLSASVGDRVTINCKASQNINKYLNWYQQKLGEAPKRLIYNTNNLQTGIPSRFSGSASGTDYTLTISSLHPEDFATYFCLQHSSLYTFGAGTKLELK
- capture of the native form of endotrophin protein [7]: efficiently capture

B3: 10B6-B5: rat anti-mouse endotrophin monoclonal antibody (antibody, V domains shown)
VH: QVQLQQSGPELAKPGSSVKISCKASGYTFTSYEMHWIKQRPGQGLEWIGYIYPESGSTGYNEKFKGKATLTVDKSSPTAYMQLSSLTPDNSAVYFCTRGLRVLGYVMDVWGHGTSVTVSS
VL: DVQLTQSPSFLSASVGDRVTINCKASQNINKYLNWYQQKLGEAPKRLIYNTNNLQTGIPSRFSGSASGTDYTLTISSLHPEDFATYFCLQHSSLYTFGAGTKLELK
- capture of the native form of endotrophin protein [7]: efficiently capture

Continued, in another order:

- stromal cells recruited into Matrigel plugs [2]: significantly more stromal cells
B1: ETP: cleaved C5 fragment of the COL6α3 chain, used as recombinant or purified protein (protein)
chain: TEPLFLTKTDICKLSRDAGTCVDFKLLWHYDLESKSCKRFWYGGCGGNENRFHSQEECEKMCSPELTV
- whole body in vivo distribution of labeled ETP ([1]; 10 μg i.v., PyMT mice, compared with control-labeled IgGs): predominantly observed in tumor lesions
- ETP fluorescence in excised tissues relative to mammary glands of WT mice ([1]; tissues excised 2 hours after injection): highly enriched in mammary tumor tissues
- MS-1 cells recruited (migration) vs controls [3]: twice as many
- cell proliferation (mitotic activity) [4]: not affected
- cell proliferation (cell numbers over time) [5]: not affected
- tumor growth for Met-1 cells [6]: significantly enhanced

- capture of the native form of endotrophin protein [7]: efficiently capture
B4: 10B6-C3: rat anti-mouse endotrophin monoclonal antibody (antibody, V domains shown)
VH: QVQLQQSGPELAKPGSSVKISCKASGYTFTSYEMHWIKQRPGQGLEWIGYIYPESGSTGYNEKFKGKATLTVDKSSPTAYMQLSSLTPDNSAVYFCTRGLRVLGYVMDVWGHGTSVTVSS
VL: DVQLTQSPSFLSASVGDRVTINCKASQNINKYLNWYQQKLGEAPKRLIYNTNNLQTGIPSRFSGSASGTDYTLTISSLHPEDFATYFCLQHSSLYTFGAGTKLELK
